{"source": "patent US10500249B2", "about": "“Compositions and methods for preventing or treating diseases, conditions, or processes characterized by aberrant fibroblast proliferation and extracellular matrix deposition” (MOERAE MATRIX, INC., priority 2014, dated 2019)", "assay_in_all_cases": "Kinase Profiling Assay", "format_in_all_cases": "biochemical", "details_in_all_cases": "100 μM", "key": {"SAPK2a(T106M) (h)": {"target": "SAPK2a(T106M) (h) (Homo sapiens, UniProt Q16539, T106M)", "sequence (Q16539 whole entry T106M)": "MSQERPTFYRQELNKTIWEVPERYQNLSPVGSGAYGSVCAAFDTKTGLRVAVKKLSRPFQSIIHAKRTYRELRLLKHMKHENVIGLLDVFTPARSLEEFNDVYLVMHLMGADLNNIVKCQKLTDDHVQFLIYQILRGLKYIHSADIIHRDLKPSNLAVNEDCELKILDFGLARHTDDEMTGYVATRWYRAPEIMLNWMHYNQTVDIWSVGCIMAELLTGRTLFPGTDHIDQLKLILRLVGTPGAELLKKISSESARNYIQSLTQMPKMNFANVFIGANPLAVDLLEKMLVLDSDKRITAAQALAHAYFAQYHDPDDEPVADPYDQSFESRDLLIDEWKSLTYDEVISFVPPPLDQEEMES", "method_in_brief": "(§1)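 Scintillation counting quantifies radiolabeled, positively charged substrate retained on a negatively charged filter after kinase reaction with labeled ATP; inhibitor peptide present.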"}, "PKCζ (h)": {"target": "T1, PKCζ (h) (Homo sapiens, UniProt Q05513)", "T1 sequence (Q05513 1-592)": "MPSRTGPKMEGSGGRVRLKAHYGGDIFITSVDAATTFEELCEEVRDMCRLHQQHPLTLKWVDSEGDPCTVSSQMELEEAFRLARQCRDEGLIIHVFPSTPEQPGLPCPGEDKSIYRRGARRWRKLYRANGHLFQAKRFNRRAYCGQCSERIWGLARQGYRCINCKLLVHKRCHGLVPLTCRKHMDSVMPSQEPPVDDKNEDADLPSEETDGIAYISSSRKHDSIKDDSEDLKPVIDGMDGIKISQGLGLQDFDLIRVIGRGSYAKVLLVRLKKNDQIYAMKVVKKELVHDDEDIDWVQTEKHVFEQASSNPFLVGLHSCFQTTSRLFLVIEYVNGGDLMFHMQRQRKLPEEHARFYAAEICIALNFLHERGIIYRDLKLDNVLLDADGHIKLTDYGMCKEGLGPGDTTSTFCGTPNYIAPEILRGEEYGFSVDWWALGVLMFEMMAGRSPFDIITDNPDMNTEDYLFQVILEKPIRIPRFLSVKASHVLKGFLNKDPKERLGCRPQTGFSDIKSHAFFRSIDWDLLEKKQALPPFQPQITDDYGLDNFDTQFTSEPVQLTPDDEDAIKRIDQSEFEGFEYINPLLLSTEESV", "method_in_brief": "as §1"}, "Abl(Y253F) (h)": {"target": "Abl(Y253F) (h) (Homo sapiens, UniProt P00519, Y253F)", "method_in_brief": "as §1"}, "CDK2/cyclinA (h)": {"target": "T2, CDK2/cyclinA (h) (Homo sapiens, UniProt P24941)", "T2 construct": "purchased Millipore", "method_in_brief": "as §1"}, "CK2 (h)": {"target": "T3, CK2 (h) (Homo sapiens, UniProt P68400)", "T3 construct": "purchased Millipore", "method_in_brief": "as §1"}, "IGF-1R (h), activated": {"target": "T4, IGF-1R (h), activated (Homo sapiens, UniProt P08069)", "T4 construct": "purchased Millipore", "T4 sequence (P08069 959-1367 limits assumed)": "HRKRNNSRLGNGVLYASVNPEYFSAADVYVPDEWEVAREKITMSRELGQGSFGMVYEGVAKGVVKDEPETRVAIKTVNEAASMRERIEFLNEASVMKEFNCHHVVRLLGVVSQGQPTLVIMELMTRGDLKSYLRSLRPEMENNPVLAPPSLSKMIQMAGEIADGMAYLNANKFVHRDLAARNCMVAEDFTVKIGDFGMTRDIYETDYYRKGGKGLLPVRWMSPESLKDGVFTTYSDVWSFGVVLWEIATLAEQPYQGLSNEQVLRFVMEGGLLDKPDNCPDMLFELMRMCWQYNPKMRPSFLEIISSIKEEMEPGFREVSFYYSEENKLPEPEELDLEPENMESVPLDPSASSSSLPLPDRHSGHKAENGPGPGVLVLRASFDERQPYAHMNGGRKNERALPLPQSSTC", "method_in_brief": "as §1"}, "PKD2 (h)": {"target": "T5, PKD2 (h) (Homo sapiens, UniProt Q9BZL6)", "T5 sequence (Q9BZL6 1-878)": "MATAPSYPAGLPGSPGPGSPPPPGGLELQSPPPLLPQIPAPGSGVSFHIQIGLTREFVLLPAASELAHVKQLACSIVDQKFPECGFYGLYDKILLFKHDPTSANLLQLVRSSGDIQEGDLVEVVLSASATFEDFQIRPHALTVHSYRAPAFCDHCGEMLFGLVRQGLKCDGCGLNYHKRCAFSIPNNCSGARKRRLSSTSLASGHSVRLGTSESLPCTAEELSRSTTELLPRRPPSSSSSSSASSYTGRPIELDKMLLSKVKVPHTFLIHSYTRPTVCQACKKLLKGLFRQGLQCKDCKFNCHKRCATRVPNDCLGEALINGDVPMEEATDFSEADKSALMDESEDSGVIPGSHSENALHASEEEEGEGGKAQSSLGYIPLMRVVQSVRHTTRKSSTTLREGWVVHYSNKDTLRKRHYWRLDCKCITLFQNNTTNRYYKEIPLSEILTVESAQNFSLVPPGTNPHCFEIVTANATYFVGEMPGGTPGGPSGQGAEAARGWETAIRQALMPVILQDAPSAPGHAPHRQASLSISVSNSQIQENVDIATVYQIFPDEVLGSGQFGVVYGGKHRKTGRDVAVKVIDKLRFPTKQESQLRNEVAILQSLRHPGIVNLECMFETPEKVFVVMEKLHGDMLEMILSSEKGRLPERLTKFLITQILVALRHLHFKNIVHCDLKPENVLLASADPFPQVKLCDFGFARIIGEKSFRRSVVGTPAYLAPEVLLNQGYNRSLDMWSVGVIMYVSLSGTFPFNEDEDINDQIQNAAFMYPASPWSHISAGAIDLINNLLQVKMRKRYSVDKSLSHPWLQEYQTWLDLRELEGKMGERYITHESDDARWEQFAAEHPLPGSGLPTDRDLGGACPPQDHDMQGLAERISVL", "method_in_brief": "as §1"}, "Src(1-530) (h)": {"target": "T6, Src(1-530) (h) (Homo sapiens, UniProt P12931)", "T6 construct": "Src(1-530) (h)", "method_in_brief": "as §1"}, "Aurora-B (h)": {"target": "Aurora-B (h) (Homo sapiens, UniProt Q96GD4)", "sequence (Q96GD4 whole entry)": "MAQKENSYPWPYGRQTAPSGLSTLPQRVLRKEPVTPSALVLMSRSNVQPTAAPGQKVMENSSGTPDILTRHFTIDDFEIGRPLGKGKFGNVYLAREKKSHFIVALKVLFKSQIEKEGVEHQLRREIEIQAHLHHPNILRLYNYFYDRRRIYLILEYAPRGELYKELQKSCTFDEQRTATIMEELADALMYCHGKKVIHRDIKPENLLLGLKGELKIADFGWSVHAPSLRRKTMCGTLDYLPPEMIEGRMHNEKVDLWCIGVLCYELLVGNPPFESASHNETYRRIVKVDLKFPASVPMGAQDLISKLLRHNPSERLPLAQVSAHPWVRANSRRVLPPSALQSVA", "method_in_brief": "as §1"}, "CK1δ (h)": {"target": "T7, CK1δ (h) (Homo sapiens, UniProt P48730)", "T7 construct": "purchased Millipore", "method_in_brief": "as §1"}, "Abl(T315I) (h)": {"target": "Abl(T315I) (h) (Homo sapiens, UniProt P00519, T315I)", "method_in_brief": "as §1"}, "TSSK2 (h)": {"target": "T8, TSSK2 (h) (Homo sapiens, UniProt Q96PF2)", "T8 sequence (Q96PF2 1-358)": "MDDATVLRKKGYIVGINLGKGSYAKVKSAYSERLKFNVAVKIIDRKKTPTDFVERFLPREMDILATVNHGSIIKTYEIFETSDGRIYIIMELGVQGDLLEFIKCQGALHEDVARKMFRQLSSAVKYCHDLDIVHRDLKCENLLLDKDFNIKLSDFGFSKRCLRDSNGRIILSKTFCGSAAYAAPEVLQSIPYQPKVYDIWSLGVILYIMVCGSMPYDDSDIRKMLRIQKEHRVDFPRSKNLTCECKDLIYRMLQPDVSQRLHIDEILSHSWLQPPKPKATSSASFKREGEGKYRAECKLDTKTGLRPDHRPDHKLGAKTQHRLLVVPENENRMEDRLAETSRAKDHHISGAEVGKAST", "method_in_brief": "as §1"}, "TLK2 (h)": {"target": "TLK2 (h) (Homo sapiens, UniProt Q86UE8)", "sequence (Q86UE8 whole entry)": "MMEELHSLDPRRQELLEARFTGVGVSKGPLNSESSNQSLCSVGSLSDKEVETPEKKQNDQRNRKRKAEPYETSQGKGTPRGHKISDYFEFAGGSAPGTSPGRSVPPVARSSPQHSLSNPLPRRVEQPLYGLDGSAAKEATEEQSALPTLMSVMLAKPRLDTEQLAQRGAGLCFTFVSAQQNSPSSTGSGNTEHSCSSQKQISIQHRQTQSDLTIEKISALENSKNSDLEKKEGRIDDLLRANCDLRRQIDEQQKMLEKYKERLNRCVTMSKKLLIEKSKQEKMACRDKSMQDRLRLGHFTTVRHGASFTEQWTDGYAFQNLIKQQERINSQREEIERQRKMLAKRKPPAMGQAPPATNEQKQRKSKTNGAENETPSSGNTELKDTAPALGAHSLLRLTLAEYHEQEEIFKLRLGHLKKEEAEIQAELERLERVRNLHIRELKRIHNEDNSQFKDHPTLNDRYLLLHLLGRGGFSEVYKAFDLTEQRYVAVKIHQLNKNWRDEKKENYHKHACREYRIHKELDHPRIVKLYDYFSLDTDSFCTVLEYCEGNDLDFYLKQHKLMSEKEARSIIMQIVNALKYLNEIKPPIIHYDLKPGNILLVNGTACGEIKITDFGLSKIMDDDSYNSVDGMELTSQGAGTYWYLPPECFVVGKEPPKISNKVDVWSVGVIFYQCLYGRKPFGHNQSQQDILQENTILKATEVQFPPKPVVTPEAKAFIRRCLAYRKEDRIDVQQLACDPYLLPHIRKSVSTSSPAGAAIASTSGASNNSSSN", "method_in_brief": "as §1"}}}
{"sequence": "FAKLAARLYRKALARQLGVAA [MMI-0300]", "values": [{"measurement": "% activity", "setting": "SAPK2a(T106M) (h)", "value": 97, "unit": "%"}, {"measurement": "% activity", "setting": "PKCζ (h)", "value": 81, "unit": "%"}, {"measurement": "% activity", "setting": "Abl(Y253F) (h)", "value": 86, "unit": "%"}, {"measurement": "% activity", "setting": "CDK2/cyclinA (h)", "value": 86, "unit": "%"}, {"measurement": "% activity", "setting": "CK2 (h)", "value": 90, "unit": "%"}, {"measurement": "% activity", "setting": "IGF-1R (h), activated", "value": 80, "unit": "%"}, {"measurement": "% activity", "setting": "PKD2 (h)", "value": 33, "unit": "%"}, {"measurement": "% activity", "setting": "Src(1-530) (h)", "value": 23, "unit": "%"}, {"measurement": "% activity", "setting": "Aurora-B (h)", "value": 128, "unit": "%"}, {"measurement": "% activity", "setting": "CK1δ (h)", "value": 92, "unit": "%"}, {"measurement": "% activity", "setting": "Abl(T315I) (h)", "value": 97, "unit": "%"}, {"measurement": "% activity", "setting": "TSSK2 (h)", "value": 98, "unit": "%"}]}
{"sequence": "HRRIKAWLKKIKALARQLGVAA (Mammalian) [MMI-0500]", "values": [{"measurement": "% activity", "setting": "SAPK2a(T106M) (h)", "value": 32, "unit": "%"}, {"measurement": "% activity", "setting": "PKCζ (h)", "value": 7, "unit": "%"}, {"measurement": "% activity", "setting": "Abl(Y253F) (h)", "value": 29, "unit": "%"}, {"measurement": "% activity", "setting": "CDK2/cyclinA (h)", "value": 87, "unit": "%"}, {"measurement": "% activity", "setting": "CK2 (h)", "value": 93, "unit": "%"}, {"measurement": "% activity", "setting": "IGF-1R (h), activated", "value": 45, "unit": "%"}, {"measurement": "% activity", "setting": "PKD2 (h)", "value": 10, "unit": "%"}, {"measurement": "% activity", "setting": "Src(1-530) (h)", "value": 21, "unit": "%"}, {"measurement": "% activity", "setting": "Aurora-B (h)", "value": 5, "unit": "%"}, {"measurement": "% activity", "setting": "CK1δ (h)", "value": 78, "unit": "%"}, {"measurement": "% activity", "setting": "Abl(T315I) (h)", "value": 16, "unit": "%"}, {"measurement": "% activity", "setting": "TLK2 (h)", "value": 133, "unit": "%"}, {"measurement": "% activity", "setting": "TSSK2 (h)", "value": 92, "unit": "%"}]}
{"sequence": "KAFAKLAARLYRKALARQLGVAA [MMI-0400]", "values": [{"measurement": "% activity", "setting": "SAPK2a(T106M) (h)", "value": 99, "unit": "%"}, {"measurement": "% activity", "setting": "PKCζ (h)", "value": 75, "unit": "%"}, {"measurement": "% activity", "setting": "Abl(Y253F) (h)", "value": 78, "unit": "%"}, {"measurement": "% activity", "setting": "CDK2/cyclinA (h)", "value": 92, "unit": "%"}, {"measurement": "% activity", "setting": "CK2 (h)", "value": 101, "unit": "%"}, {"measurement": "% activity", "setting": "IGF-1R (h), activated", "value": 77, "unit": "%"}, {"measurement": "% activity", "setting": "PKD2 (h)", "value": 25, "unit": "%"}, {"measurement": "% activity", "setting": "Src(1-530) (h)", "value": 19, "unit": "%"}, {"measurement": "% activity", "setting": "Aurora-B (h)", "value": 150, "unit": "%"}, {"measurement": "% activity", "setting": "CK1δ (h)", "value": 93, "unit": "%"}, {"measurement": "% activity", "setting": "TLK2 (h)", "value": 151, "unit": "%"}, {"measurement": "% activity", "setting": "TSSK2 (h)", "value": 94, "unit": "%"}]}
{"sequence": "YARAAARQARAKALNRQLGVA (Mammalian) [MMI-0200]", "values": [{"measurement": "% activity", "setting": "SAPK2a(T106M) (h)", "value": 100, "unit": "%"}, {"measurement": "% activity", "setting": "PKCζ (h)", "value": 98, "unit": "%"}, {"measurement": "% activity", "setting": "CK2 (h)", "value": 83, "unit": "%"}, {"measurement": "% activity", "setting": "IGF-1R (h), activated", "value": 94, "unit": "%"}, {"measurement": "% activity", "setting": "PKD2 (h)", "value": 78, "unit": "%"}, {"measurement": "% activity", "setting": "Src(1-530) (h)", "value": 75, "unit": "%"}, {"measurement": "% activity", "setting": "Aurora-B (h)", "value": 166, "unit": "%"}, {"measurement": "% activity", "setting": "CK1δ (h)", "value": 92, "unit": "%"}, {"measurement": "% activity", "setting": "Abl(T315I) (h)", "value": 108, "unit": "%"}, {"measurement": "% activity", "setting": "TLK2 (h)", "value": 129, "unit": "%"}, {"measurement": "% activity", "setting": "TSSK2 (h)", "value": 91, "unit": "%"}]}
